According to paper PMC5113989:
Read-outs that look alike come from different tables or passages of the source.

How the values were obtained:
Test in all cases: KinExA flow fluorimetry (depletion of 5-Helix by cells)
[1] = molecular target: C34-conjugated CXCR4 (gp41 HR2 peptide C34 fused to the amino terminus of CXCR4) (HIV-1 (HxB2 numbering) | not stated) (UniProt P04578)
[2] = molecular target: C34-conjugated CCR5 (gp41 HR2 peptide C34 fused to the amino terminus of CCR5) (HIV-1 (HxB2 numbering) | human (genomic DNA of the Jurkat T cell line)) (UniProt P04578)
[3] = molecular target: C34-conjugated CXCR4 (gp41 HR2 peptide C34 fused to the amino terminus of CXCR4) (HIV-1 (HxB2 numbering) | not stated) (UniProt P04578); remark: listed apart in the source
[4] = molecular target: C34-conjugated CCR5 (gp41 HR2 peptide C34 fused to the amino terminus of CCR5) (HIV-1 (HxB2 numbering) | human (genomic DNA of the Jurkat T cell line)) (UniProt P04578); remark: listed apart in the source

rhodamine-conjugated 5-Helix (5-Helix variant containing a C-terminal Cys residue)
Kd [1]: < 0.015 nM | Kd [2]: < 0.015 nM | Kd [3]: 4 pM | Kd [4]: 0.013 nM
